Results on one molecule are retold here after paper PMC12630593.

Common to all, as to assay: EMSA
In general terms: A gel shift assay detects complexes by their altered migration in electrophoresis.

The target of data set [1] is NFI-X193 R115W (mouse, UniProt P70257 14-193, R115W).
Data set [2] deals with NFI-X193 R116P (mouse, UniProt P70257 14-193, R116P).
In data set [3] the target is NFI-X193 K113E (mouse, UniProt P70257 14-193, K113E).
The target in data set [4] is NFI-X193 K125E (mouse, UniProt P70257 14-193, K125E).
In data set [5] the target is NFI-X193 R116Q (mouse, UniProt P70257 14-193, R116Q).
For data set [6], the target named is NFI-X193 R121P (mouse, UniProt P70257 14-193, R121P).
Data set [7] addresses NFI-X193 (NFI-X DBD) (mouse, UniProt P70257 14-193).

B1: NFI-31bp Cy5 probe (dsDNA)
DNA 1: GGGTCTCTTTGGCAGGCAGCCAACCAGCAAA
DNA 2: TTTGCTGGTTGGCTGCCTGCCAAAGAGACCC
Regarding B1, the binding result in data set [1] is “no binding”; in data set [2], “no binding”; in data set [3], “no binding”; in data set [4] it was “no binding”; in data set [5] it was “no binding”; in data set [6], “binds”. Besides, the Kd (usually a measure of binding affinity in units of concentration) in data set [7] was 48.1 ± 0.49 nM.
